# Assay: Chemical and physical stability of the reconstituted drug product
# Format: physicochemical
# Conditions: at 2-8° C. and at room temperature
# Protocol: When reconstituted with 8.8 mL Water for Injection (WFI), US Pharmacopeia (USP), the concentration of reconstituted LV product is 5 mg/mL. The reconstituted drug product is a clear to slightly opalescent, colorless to light yellow solution with no visible particulate matter. The pH is approximately 6.0. The reconstituted solution is subsequently diluted in sterile 0.9% Sodium Chloride for Injection, USP, for IV administration.
# If not used immediately, the in-use storage should not be longer than 24 hours under refrigeration at 2-8° C. The prepared dosing solution (reconstituted drug product solution and saline dilution in an IV bag or polypropylene syringe) should be administered within 8 hours after exposing to ambient temperature and light condition.
substance,measurement,value
ladiratuzumab vedotin [LV],Chemical and physical stability of the reconstituted drug product demonstrated for,24 h

# Source: patent publication US20210030885A1, “HUMANIZED ANTI-LIV1 ANTIBODIES FOR THE TREATMENT OF CANCER” (priority 2019, published 2021)
